In US20220259593A1, “CONTROL OF MAMMALIAN GENE DOSAGE USING CRISPR” (The Regents of the University of California, priority 2019, published 2022):
Numbering of substitutions follows the chain as printed.

B1: cr567 (nucleic acid)
guide: GTTTAAGAGCTAAGCTGGAAACAGCATAGCAAGTTTAAATAAGGCTAGTCCGTTATCAACTTGCGAAAGTGGCACCGAGTCGGTGCT
modifications: listed as DNA, chemistry not fully specified
B2: cr450 (nucleic acid)
guide: B1 guide with C64A, A74G, T84C
modifications: listed as DNA, chemistry not fully specified
B3: cr275 (nucleic acid)
guide: B1 guide with T61C, C64A, G65A, A68G, C73G, C76A, G82T, G85C
modifications: listed as DNA, chemistry not fully specified
B4: cr597 (nucleic acid)
guide: B1 guide with A59C, C64A, G65A, T70G, C73G, G77T, C81A, G85C
modifications: listed as DNA, chemistry not fully specified
B5: cr243 (nucleic acid)
guide: B1 guide with T62C, C64A, G65A, A67G, A74C, C76T, G82A, T84G
modifications: listed as DNA, chemistry not fully specified
B6: cr614 (nucleic acid)
guide: B1 guide with G18A, C64A, G65A
modifications: listed as DNA, chemistry not fully specified
B7: cr777 (nucleic acid)
guide: B1 guide with T53G, C64A, G65A
modifications: listed as DNA, chemistry not fully specified
B8: cr136 (nucleic acid)
guide: B1 guide with C45T, G48A, C64A, G65A, A74G, C75A, G83T, T84C
modifications: listed as DNA, chemistry not fully specified
B9: cr910 (nucleic acid)
guide: B1 guide with C64A, G65A, C73A, C76G, G82C, G85T
modifications: listed as DNA, chemistry not fully specified
B10: cr838 (nucleic acid)
guide: B1 guide with T46C, C64A, G65A
modifications: listed as DNA, chemistry not fully specified
B11: cr361 (nucleic acid)
guide: B1 guide with G17C, C64A, G65A
modifications: listed as DNA, chemistry not fully specified
B12: cr503 (nucleic acid)
guide: B1 guide with C64A, G65A, T84G
modifications: listed as DNA, chemistry not fully specified
B13: cr863 (nucleic acid)
guide: B1 guide with A23C, C64A, G65A
modifications: listed as DNA, chemistry not fully specified
B14: cr388 (nucleic acid)
guide: B1 guide with C64A, G65A, G72T, C73A, G85T, C86A
modifications: listed as DNA, chemistry not fully specified
B15: cr977 (nucleic acid)
guide: B1 guide with A59T, C64A, G65A, T70A, G77A, C81T
modifications: listed as DNA, chemistry not fully specified
B16: cr387 (nucleic acid)
guide: B1 guide with A47C, C64A, G65A
modifications: listed as DNA, chemistry not fully specified
B17: cr525 (nucleic acid)
guide: B1 guide with A59C, C64A, G65A, T70G, C76G, G82C
modifications: listed as DNA, chemistry not fully specified
B18: cr640 (nucleic acid)
guide: B1 guide with C64A, G65A, A74C, C76A, G82T, T84G
modifications: listed as DNA, chemistry not fully specified
B19: cr577 (nucleic acid)
guide: B1 guide with A28G, A42G, A55C, C64A, G65A
modifications: listed as DNA, chemistry not fully specified
B20: cr409 (nucleic acid)
guide: B1 guide with C22G, C64A, G65A
modifications: listed as DNA, chemistry not fully specified
B21: cr752 (nucleic acid)
guide: B1 guide with C64A, G65T, T87G
modifications: listed as DNA, chemistry not fully specified
B22: cr364 (nucleic acid)
guide: B1 guide with T61A, C64A, G65A
modifications: listed as DNA, chemistry not fully specified
B23: cr141 (nucleic acid)
guide: B1 guide with T46C, C64A
modifications: listed as DNA, chemistry not fully specified
B24: cr375 (nucleic acid)
guide: B1 guide with G17T, C64A, G65A
modifications: listed as DNA, chemistry not fully specified
B25: cr256 (nucleic acid)
guide: B1 guide with G29A, C64A, G65A
modifications: listed as DNA, chemistry not fully specified
B26: cr780 (nucleic acid)
guide: B1 guide with T62G, C64A, G65A, A67C, G77T, C81A
modifications: listed as DNA, chemistry not fully specified
B27: cr132 (nucleic acid)
guide: B1 guide with C64A, C76T, G82A
modifications: listed as DNA, chemistry not fully specified
B28: cr304 (nucleic acid)
guide: B1 guide with C60T, C64A, G69A
modifications: listed as DNA, chemistry not fully specified
B29: cr769 (nucleic acid)
guide: B1 guide with A32G, T53G, T54A, C64A, G65A
modifications: listed as DNA, chemistry not fully specified
B30: cr974 (nucleic acid)
guide: B1 guide with C64A, A78T
modifications: listed as DNA, chemistry not fully specified

test system: K562 CRISPRi cells; test: Constant region variant library pooled growth screen, K562; format: cell-based, human; conditions: sgRNA constant region variants; activity relative to the original, un-modified constant region cr995
Text: We calculated relative activities for each targeting sequence:constant region pair by normalizing its phenotype to that of the targeting sequence paired with the unmodified constant region, identifying 409 constant region variants that on average conferred intermediate activity (0.1-0.9, FIG. 5B). Ten variants selected for individual evaluation also mediated intermediate levels of mRNA knockdown (FIG. 6B). Mapping the activities of constant region variants with single base substitutions onto the structure recapitulated known relationships between constant region structure and function (FIG. 5C).
The sequences in the library of modified constant regions were derived from the sgRNA (F+E) optimized sequence (23) modified to include a BlpI site (15). Each modified constant region was paired with 36 sgRNA targeting sequences (3 sgRNAs targeting each of 10 essential genes and six non-targeting negative control sgRNAs). The cloning strategy (described below) allowed the mutation of most positions in the sgRNA constant region. A variety of modifications were made, including substitutions of all single bases not in the BlpI restriction site (which is used for cloning), double substitutions including all substitutions at base-paired position pairs not before or in the BlpI site, and a variety of triple, quadruple, and sextuple substitutions, including base-pair-preserving substitutions at adjacent base-pairs.
The library was ordered and cloned in two parts. One part consisted of ˜100 modifications to the eight bases upstream of the BlpI restriction site. Constant region variants with mutations in this section were paired with each of the 36 targeting sequences, ordered as a pooled oligonucleotide library (Twist Biosciences), and cloned into pCRISPRia-v2 as described above. The second part consisted of ˜900 modifications to the 71 bases downstream of the BlpI restriction site. This part was cloned in two steps. First, all 36 targeting sequences were individually cloned into pCRISPRia-v2 as described above. The vectors were then pooled at an equimolar ratio and digested with BlpI (NEB) and XhoI (NEB). The modified constant region variants were ordered as a pooled oligonucleotide library (Twist Biosciences), PCR amplified with Phusion polymerase (NEB), digested with BlpI (NEB) and XhoI (NEB), and ligated into the digested vector pool, in a manner identical to previously published protocols and as described above, except for the different restriction enzymes.
Screens with the compact mismatched sgRNA library and the constant region library were conducted largely as described above, with smaller modifications during the screening procedure and an updated sequencing library preparation protocol. Briefly, the libraries were transduced in duplicate into K562 CRISPRi (both libraries) or HeLa CRISPRi cells (compact mismatched sgRNA library) as described above. K562 replicates were maintained separately in 0.15 to 0.3 L of RPMI-1640 in 0.3 L spinner flasks for the course of the screen. HeLa replicates were maintained in sets of ten 15-cm plates. Cells were selected with puromycin as described above (K562: 1 day of 0.75 μg/mL and 1 day of 0.85 μg/mL; HeLa: 2 days of 0.8 μg/mL and 1 day of 1 μg/mL). The remainder of the screen was carried out at >1000× library coverage (K562 compact mismatched sgRNA library: >2000×; HeLa compact mismatched sgRNA library: >1000×; K562 constant region library: >2000×). Multiple samples were harvested after 4 to 8 days of growth. For the drug screen, 10 μM lovastatin (ApexBio) or an equivalent volume of DMSO (vehicle) was added to flasks at t=0, and 3 days later cells were pelleted and re-suspended in fresh medium. Lovastatin (12 μM) or DMSO was again added after 5 and 9 days of growth, with media exchanges 3 days after drug supplementation. Multiple samples were harvested after 4 to 8 days for the K562 and HeLa growth screens. […]

| Molecule | Mean relative activity |
| --- | --- |
| B1 | 1.06 |
| B2 | 1.064 |
| B3 | 1.06 |

same assay, conditions: sgRNA constant region variants; activity relative to the un-modified constant region cr995

| Molecule | Mean relative activity |
| --- | --- |
| B4 | 0.9187 |
| B5 | 0.9319 |
| B6 | 0.927 |
| B7 | 0.9022 |
| B8 | 0.9172 |
| B9 | 0.9171 |
| B10 | 0.9187 |
| B11 | 0.9312 |
| B12 | 0.9079 |
| B13 | 0.9031 |
| B14 | 0.9188 |
| B15 | 0.9127 |
| B16 | 0.9094 |
| B17 | 0.9205 |
| B18 | 0.9186 |
| B19 | 0.9309 |
| B20 | 0.9158 |
| B21 | 0.9196 |
| B22 | 0.9193 |
| B23 | 0.9018 |
| B24 | 0.9294 |
| B25 | 0.9023 |
| B26 | 0.9287 |
| B27 | 0.9196 |
| B28 | 0.9285 |
| B29 | 0.9268 |
| B30 | 0.9235 |
